Source: patent US20230220042A1 (SHANGHAI JIAO TONG UNIVERSITY SCHOOL OF MEDICINE, published 2023)
Substitutions are numbered along the chain they refer to. Names and notes keep the numbering of the source.

T1: FcγRIIA^131H (human, UniProt P12318 34-217, biotin-labeled)
T1 construct: extracellular domain; Bought protein; also called RIIAH
T1 sequence (looked up): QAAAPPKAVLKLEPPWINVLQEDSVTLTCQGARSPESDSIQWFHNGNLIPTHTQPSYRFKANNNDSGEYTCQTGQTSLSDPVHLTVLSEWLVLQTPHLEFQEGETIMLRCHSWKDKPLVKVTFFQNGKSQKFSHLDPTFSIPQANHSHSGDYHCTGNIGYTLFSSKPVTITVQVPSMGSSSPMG

T2: FcγRIIA^131R (human, UniProt P12318 34-217, biotin-labeled)
T2 construct: extracellular domain; Bought protein; also called RIIAR
T2 sequence (looked up): T1 sequence (looked up) with H134R

T3: FcγRIIB (human, UniProt P31994 43-217, biotin-labeled)
T3 construct: extracellular domain; Bought protein; also called CD32b
T3 sequence (looked up): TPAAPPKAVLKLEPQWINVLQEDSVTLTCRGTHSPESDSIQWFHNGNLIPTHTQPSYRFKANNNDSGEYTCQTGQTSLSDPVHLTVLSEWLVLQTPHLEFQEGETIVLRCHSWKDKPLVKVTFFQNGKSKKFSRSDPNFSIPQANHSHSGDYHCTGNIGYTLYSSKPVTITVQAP

T4: Biotin-FcγRIIB (human, UniProt P31994 43-217, limits assumed, biotin label)
T4 construct: Soluble labelled protein used to stain and sort the display cells; also called human FcγRIIB; CD32b
T4 sequence (looked up): T3 sequence (looked up)

B1: anti-human OX40 antibody, human IgG2 Fc mutant Mut_24 (V266L/S267E/H268S/E269G/P271T) (antibody, name in EU numbering)
heavy: QVQLQESGPGLVKPSGTLSLTCAVSGGSISSSIWWSWVRQPPGKGLEWIGEIHHSGNTNCNPSLKSRVTISIDKSKNQFSLKLTSVTAADTAVYYCARAGTGTTLDYWGQGTLVTVSSASTKGPSVFPLAPCSRSTSESTAALGCLVKDYFPEPVTVSWNSGALTSGVHTFPAVLQSSGLYSLSSVVTVPSSNFGTQTYTCNVDHKPSNTKVDKTVERKCCVECPPCPAPPVAGPSVFLFPPKPKDTLMISRTPEVTCVVVDLESGDTEVQFNWYVDGVEVHNAKTKPREEQFNSTFRVVSVLTVVHQDWLNGKEYKCKVSNKGLPAPIEKTISKTKGQPREPQVYTLPPSREEMTKNQVSLTCLVKGFYPSDIAVEWESNGQPENNYKTTPPMLDSDGSFFLYSKLTVDKSRWQQGNVFSCSVMHEALHNHYTQKSLSLSPGK
light: EIVLTQSPGTLSLSPGERATLSCRASQSVSGDYLAWYQQKLGQAPRLLIYGASIRATGIPDRFSGSGSGTDFTLTISKLEPEDFAVYYCQQYGSSPLTFGGGTKVEIKRTVAAPSVFIFPPSDEQLKSGTASVVCLLNNFYPREAKVQWKVDNALQSGNSQESVTEQDSKDSTYSLSSTLTLSKADYEKHKVYACEVTHQGLSSPVTKSFNRGEC
B2: human IgG2 anti-mouse CD40 surface displayed antibody, V234Q/V266L/S267E/H268S/E269V (antibody)
light chain (with the P2A rest): DTVLTQSPALAVSPGERVTISCRASDSVSTLMHWYQQKPGQQPKLLIYLASHLESGVPARFSGSGSGTDFTLTIDPVEADDTATYYCQQSWNDPWTFGGGTKLELKRTVAAPSVFIFPPSDEQLKSGTASVVCLLNNFYPREAKVQWKVDNALQSGNSQESVTEQDSKDSTYSLSSTLTLSKADYEKHKVYACEVTHQGLSSPVTKSFNRGECGSGATNFSLLKQAGDVEENPG
heavy: EVQLVESDGGLVQPGRSLKLPCAASGFTFSDYYMAWVRQAPTKGLEWVASISYDGSSTYYRDSVKGRFTISRDNAKSTLYLQMDSLRSEDTATYYCGRHSSYFDYWGQGVMVTVSSASTKGPSVFPLAPCSRSTSESTAALGCLVKDYFPEPVTVSWNSGALTSGVHTFPAVLQSSGLYSLSSVVTVPSSNFGTQTYTCNVDHKPSNTKVDKTVERKCCVECPPCPAPPQAGPSVFLFPPKPKDTLMISRTPEVTCVVVDLESVDPEVQFNWYVDGVEVHNAKTKPREEQFNSTFRVVSVLTVVHQDWLNGKEYKCKVSNKGLPAPIEKTISKTKGQPREPQVYTLPPSREEMTKNQVSLTCLVKGFYPSDIAVEWESNGQPENNYKTTPPMLDSDGSFFLYSKLTVDKSRWQQGNVFSCSVMHEALHNHYTQKSLSLSPGKLEPPPSTVSNMATVAVLVVLGAAIVTGAVVAFVMKMRRRNTGGKGGDYALAPGSQTSDLSLPDCKVMVHDPHSLA
notes: As m1 with the Fc mutations; copies: 2 + 2
B3: human IgG2 anti-mouse CD40 surface displayed antibody, V266L/S267E/E269K/P271G (antibody, name in EU numbering)
light chain (with the P2A rest): B2 light chain (with the P2A rest)
heavy chain: B2 heavy with Q230V, S263H, V264K, P266G
notes: As m1 with the Fc mutations
B4: human IgG2 anti-mouse CD40 surface displayed antibody, V266L/S267E/H268S/E269V/P271C (antibody, name in EU numbering)
light chain (with the P2A rest): B2 light chain (with the P2A rest)
heavy chain: B2 heavy with Q230V, P266C
notes: As m1 with the Fc mutations
B5: human IgG2 anti-mouse CD40 surface displayed antibody, V266L/S267E/H268S/E269G/P271T (antibody, name in EU numbering)
light chain (with the P2A rest): B2 light chain (with the P2A rest)
heavy chain: B2 heavy with Q230V, V264G, P266T
notes: As m1 with the Fc mutations
B6: human IgG2 anti-mouse CD40 surface displayed antibody, V266L/S267D/H268D/E269D/P271Q (antibody, name in EU numbering)
light chain (with the P2A rest): B2 light chain (with the P2A rest)
heavy chain: B2 heavy with Q230V, E262D, S263D, V264D, P266Q
notes: As m1 with the Fc mutations
B7: human IgG2 anti-mouse CD40 surface displayed antibody, V266L/S267E/H268S/E269A/P271C (antibody, name in EU numbering)
light chain (with the P2A rest): B2 light chain (with the P2A rest)
heavy chain: B2 heavy with Q230V, V264A, P266C
notes: As m1 with the Fc mutations
B8: human IgG2 anti-mouse CD40 surface displayed antibody, V266L/S267E/H268S/E269V (antibody, name in EU numbering)
light chain (with the P2A rest): B2 light chain (with the P2A rest)
heavy chain: B2 heavy with Q230V
notes: As m1 with the Fc mutations
B9: human IgG2 anti-mouse CD40 surface displayed antibody, V266L/S267M/H268E/P271Q (antibody, name in EU numbering)
light chain (with the P2A rest): B2 light chain (with the P2A rest)
heavy chain: B2 heavy with Q230V, E262M, S263E, V264E, P266Q
notes: As m1 with the Fc mutations

Columns and labels:
[1] = target: T5, FcγRI (human, UniProt P12314 16-292, biotin-labeled); assay: ELISA, coated antibody, biotin-FcγR
T5 construct: extracellular domain; Bought protein; also called CD64
T5 sequence (P12314 16-292): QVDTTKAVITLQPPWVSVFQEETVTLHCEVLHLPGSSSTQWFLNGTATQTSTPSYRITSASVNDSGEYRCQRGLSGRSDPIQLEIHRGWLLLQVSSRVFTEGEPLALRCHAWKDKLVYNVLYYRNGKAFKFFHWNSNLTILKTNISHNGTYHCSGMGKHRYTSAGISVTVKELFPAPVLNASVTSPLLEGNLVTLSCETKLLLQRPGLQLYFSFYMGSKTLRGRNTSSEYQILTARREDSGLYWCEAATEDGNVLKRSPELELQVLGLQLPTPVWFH
Experimental: (§1) One hundred μl (2 μg/mL) of antibody or mutant thereof were added to the enzyme-linked plate to be coated overnight, then the supernatant was discarded. The plate was blocked with PBS containing 1% BSA for 2 hours, and washed with PBST (PBS containing 0.05% Tween 20). Biotin-labeled FcγR extracellular domain protein (Beijing Sino Biological Co., Ltd) of appropriate concentration was added and incubated at room temperature for 1 hour, then the supernatant was discarded and the plate was washed with PBST. The Biotin-labeled protein was detected by incubating with Streptavidin-HRP (BD BioSciences) at room temperature for 1 hour. The supernatant was removed, and the color-developing solution was added for color development for 20-40 minutes to determine the absorbance of 650 nm (A650).
(§2) Anti-human OX40 antibodies containing these new Fc mutation combinations are expressed and the binding property of the mutant antibody to FcγR are analyzed by Enzyme-linked immunosorbent assay (ELISA).

[2] = target: T1, FcγRIIA^131H; assay: ELISA, coated antibody, biotin-FcγR
Experimental: as §1, §2

[3] = target: T2, FcγRIIA^131R; assay: ELISA, coated antibody, biotin-FcγR
Experimental: as §1, §2

[4] = target: T3, FcγRIIB; assay: ELISA, coated antibody, biotin-FcγR
Experimental: as §1, §2

[5] = target: T6, FcγRIIIA^158F (human, UniProt P08637 17-208, biotin-labeled); assay: ELISA, coated antibody, biotin-FcγR
T6 construct: extracellular domain; Bought protein; also called RIIIAF
T6 sequence (P08637 17-208): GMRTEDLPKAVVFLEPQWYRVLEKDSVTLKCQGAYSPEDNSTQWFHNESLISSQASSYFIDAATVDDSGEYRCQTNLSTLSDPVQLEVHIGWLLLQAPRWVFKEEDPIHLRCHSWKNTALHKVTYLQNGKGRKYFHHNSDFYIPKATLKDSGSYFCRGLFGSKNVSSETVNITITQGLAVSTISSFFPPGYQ
Experimental: as §1, §2

[6] = target: T7, FcγRIIIA^158V (human, UniProt P08637 17-208, biotin-labeled); assay: ELISA, coated antibody, biotin-FcγR
T7 construct: extracellular domain; Bought protein; also called RIIIAV; CD16a 158V
T7 sequence (P08637 17-208 F176V): as the sequence (P08637 17-208) above, with F160V counted along it
Experimental: as §1, §2

[7] = target: human OX40 (human) (UniProt P43489); assay: cell-based or functional assay
human OX40 (human), sequence (P43489 29-277): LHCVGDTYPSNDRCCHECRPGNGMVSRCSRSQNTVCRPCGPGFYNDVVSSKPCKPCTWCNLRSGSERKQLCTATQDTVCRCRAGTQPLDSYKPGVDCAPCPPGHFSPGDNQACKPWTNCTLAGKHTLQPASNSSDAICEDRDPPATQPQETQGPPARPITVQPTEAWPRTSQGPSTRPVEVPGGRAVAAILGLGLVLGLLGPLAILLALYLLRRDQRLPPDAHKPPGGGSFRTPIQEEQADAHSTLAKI

[8] = target: T4, Biotin-FcγRIIB; assay: NGS of 3T3 display library C2 flow-sorted for FcγRIIB binding

Molecule	enrichment factor, percentage after 3rd sorting/percentage after 2nd sorting [8]	percentage after 2nd sorting [8]	percentage after 3rd sorting [8]	enrichment factor, percentage after 1st sorting/percentage before sorting [8]	enrichment factor, percentage after 2nd sorting/percentage after 1st sorting [8]	enrichment factor, percentage after 3rd sorting/percentage before sorting [8]	increased factor, mutant enrichment factor/wild-type enrichment factor [8]	percentage after 1st sorting [8]	percentage before sorting [8]	other results
IgG1 (antibody)										Absorbance value [1]: 2.66 A650; Absorbance value [2]: 0.57 A650; Absorbance value [3]: 0.26 A650; Absorbance value [4]: 0.76 A650; Absorbance value [5]: 0.19 A650; Absorbance value [6]: 0.96 A650
B1										Average increased factor of the activity over wild-type IgG2 of two experiments [7]: 9.75; Average relative activity of two experiments [7]: 0.43; Experiment 1 CFSE fluorescence intensity, 0.01 µg/ml [7]: 912; Experiment 1 CFSE fluorescence intensity, 0.1 µg/ml [7]: 812; Experiment 1 CFSE fluorescence intensity, 1 µg/ml [7]: 816; Experiment 1 average relative activity [7]: 0.36; Experiment 1 relative activity, 0.01 µg/ml [7]: 0.24; Experiment 1 relative activity, 0.1 µg/ml [7]: 0.42; Experiment 1 relative activity, 1 µg/ml [7]: 0.41; Experiment 2 CFSE fluorescence intensity, 0.1 µg/ml [7]: 2050; Experiment 2 CFSE fluorescence intensity, 1 µg/ml [7]: 1650; Experiment 2 average relative activity [7]: 0.53; Experiment 2 relative activity, 0.1 µg/ml [7]: 0.43; Experiment 2 relative activity, 1 µg/ml [7]: 0.64
B2	11.4 ratio	0.01%	0.09%							
B3	2.94 ratio	0.42%	1.22%	214 ratio	2.92 ratio	1840 ratio	1310 ratio	0.14%	0%	
B4	12.6 ratio	0.01%	0.11%		6.97 ratio			0%		
B5	5.2 ratio	0.24%	1.23%	32.7 ratio	9.34 ratio	1590 ratio	1130 ratio	0.03%	0%	
B6	3.8 ratio	0.49%	1.88%	122 ratio	4.07 ratio	1880 ratio	1340 ratio	0.12%	0%	
B7	7.11 ratio	0.95%	6.76%	60.5 ratio	3.84 ratio	1650 ratio	1180 ratio	0.25%	0%	
B8	1.95 ratio	2.13%	4.15%	99.9 ratio	12.8 ratio	2500 ratio	1780 ratio	0.17%	0%	
B9	0.78 ratio	17.1%	13.3%	229 ratio	6.6 ratio	1180 ratio	844 ratio	2.59%	0.01%	
